In patent US20240270826A1 (NATIONAL RESEARCH COUNCIL OF CANADA, published 2024):

Key:
[1] = molecular target: T1, SARS-CoV-2 spike trimer S (Wuhan, SmT1) (SARS-CoV-2 Wuhan); experiment: SPR, antigen on chip
T1 construct: extracellular domain

[2] = molecular target: T2, SARS-CoV-2 S1 (aa16-685) (Wuhan) (SARS-CoV-2 Wuhan, UniProt P0DTC2 16-685); experiment: SPR, antigen on chip
T2 construct: NRC; FLAG, 6xHis tags

[3] = molecular target: T3, SARS-CoV-2 S2 (aa686-1208) (Wuhan) (SARS-CoV-2 Wuhan, UniProt P0DTC2 686-1208); experiment: SPR, antigen on chip
T3 construct: NRC; FLAG, 6xHis tags

[4] = molecular target: Human SARS-CoV-2_Wuhan S (SmT1) (SARS-CoV-2 (Wuhan), UniProt P0DTC2 14-1208); experiment: flow cytometry SVNA: VHH-Fc inhibits S binding to ACE2 on Vero E6 cells
[5] = molecular target: T3, SARS-CoV-2 S2 (aa686-1208) (Wuhan); experiment: ELISA
SARS-CoV spike (S) = SARS-CoV spike (S) (SARS-CoV, UniProt P59594 14-1195); experiment: ELISA
[6] = molecular target: T4, SARS-CoV-2 S on CHO-S cells (SARS-CoV-2, UniProt P0DTC2 14-1273); experiment: flow cytometry, CHO-S cells
T4 construct: whole, on cells

[7] = molecular target: SARS-CoV-2 spike protein S on live virus, Wuhan (strain SARS-CoV-2/Canada/VIDO-01/2020) (SARS-CoV-2 (Wuhan), UniProt P0DTC2 14-1273); experiment: cell-based or functional assay
[8] = molecular target: Human SARS-CoV-2_Wuhan S (SmT1) (SARS-CoV-2 (Wuhan), UniProt P0DTC2 14-1208); experiment: flow cytometry SVNA, VHH-Fc vs biotin-S binding to Vero E6 ACE2

B1: NRCoV2-MRed11 VHH (VHH)
VHH: EVQLVESGGGLVQAGGSLRLSCAASGFTFSSYAMSWHRQAPGKGLEWVSAINSGGGSTSYADSVKGRFAISRDNAKNTLYLQMNSLKPEDTAVYYCATTISDGSSWSTKSYRGQGTQVTVSS
Kd [1]: 17.8 nM | koff [1]: 0.000418 s⁻¹ | kon [1]: 23400 M⁻¹ s⁻¹ | binding result [2]: no binding | Kd [3]: 5.21 nM | koff [3]: 0.000213 s⁻¹ | kon [3]: 40900 M⁻¹ s⁻¹

B2: NRCoV2-05 VHH-Fc (Fc fusion)
chain: EVKLVQSGGGLVQPGGSLRLSCAASGFIFSNYAMNWVRQAPGKGLEWVSGINSGGGDTRYADSVKGRFTVSRDNAKNTLYLQMNSLKPEDTGVYYCSKGPVSSYYGSGYDYRGQGTQVTVSS
notes: bivalent VHH-Fc
IC50 [4]: 4.9 nM

B3: NRCoV2-MRed06 VHH (VHH)
VHH: EVQLVESGGGLVQAGGSLRLSCAASGFTLAYYAIGWFRQAPGKEREGVSCISSSDGSAHYADSVKGRFTISRDNAKNTVSLQMNSLKPEDTAVYYCATDSFSSCSDYESGMDFWGKGTQVTVSS
Kd [1]: 4.8 nM | koff [1]: 0.000887 s⁻¹ | kon [1]: 185000 M⁻¹ s⁻¹ | Kd [2]: 4.22 nM | koff [2]: 0.00157 s⁻¹ | kon [2]: 371000 M⁻¹ s⁻¹ | binding result [3]: no binding

B4: NRCoV2-SR16 VHH-Fc (Fc fusion)
chain: QVQLVQSAGGLVQAGGSLRLSCVVSGTTFSRYHMGWHRQAPGKQRDFVAGISTSGAVTYADSAKGRFTISRDNAKNTVYLEMNSLKLEDTALYYCNTGGWDYRSSTFIMGLNWGQGTQVTVSS
notes: bivalent VHH-Fc
binding result [5]: no binding (tested: 13 nM) | binding result (SARS-CoV spike (S)): no binding (tested: 13 nM) | Bmax [6]: 11600 | EC50 [6]: 1.4 nM

B5: NRCoV2-MRed07 VHH (VHH)
VHH: EVQLVESGGGLVQPGGSLTLSCAASGSIGPFNTMGWYRQAPGNQREPAAIITRGGVTNYADSVKGRFTISRDNAKNAVYLQMDSLKPDDTAVYYCYANYGWAIPYWGNGTQVTVSS
Kd [1]: 0.236 nM | koff [1]: 0.000378 s⁻¹ | kon [1]: 1.6e+06 M⁻¹ s⁻¹ | Kd [2]: 0.378 nM | koff [2]: 0.000427 s⁻¹ | kon [2]: 1.13e+06 M⁻¹ s⁻¹ | binding result [3]: no binding

B6: NRCoV2-MRed03 VHH (VHH)
VHH: EVQLVESGGGLVQPGGSLRLSCAAIGFTLDYYAIGWFRQAPGKEREGVSCISSSDGSTYYADSVKGRFTISRDNAKNTVYLQMNSLKPEDTAVYYCATDAFATCDSWYAQIAQYDFRGQGTQVTVSS
Kd [1]: 0.52 nM | koff [1]: 8.14e-05 s⁻¹ | kon [1]: 157000 M⁻¹ s⁻¹ | Kd [2]: 0.223 nM | koff [2]: 6.15e-05 s⁻¹ | kon [2]: 276000 M⁻¹ s⁻¹ | binding result [3]: no binding

B7: NRCoV2-17 VHH-Fc (Fc fusion)
chain: EVQLQQSGGGLVQTGGSLRLSCAAAGSPFSQLAMSWYRQISGKERAWVASISPTGNRSYSKIAKGRFTISRDNAKNTVTLQMTSLKPEDTAAYICQAANVNGGDYWGQGTQVTVSS
notes: bivalent VHH-Fc
IC50 [4]: 8.6 nM

B8: NRCoV2-14 VHH-Fc (Fc fusion)
chain: EVQLVSSGGGLVQAGGSLRLSCEASGTTFSHYAVGWYRQAPGKQREWVASISVFGSTTYGGSVAGRFTISRDNDKNTVDLQMNSLKPEDTAVYYCHAVNADIGGDYWGQGTQVTVSS
notes: bivalent VHH-Fc
IC50 [4]: 7.5 nM

B9: NRCoV2-MRed25 VHH (VHH)
VHH: EVQLVESGGGLVQAGGSLRLSCAASGHTFSRYGMGWFRQAPGKEREFVAAISWRGDSTYYRDSVNGRFTISRDNAKNTVYLGMNSLKPEDTAVYYCAAEMWGTATIVASRYTYWGQGTQVTVSS
Kd [1]: 1.02 nM | koff [1]: 0.000115 s⁻¹ | kon [1]: 112000 M⁻¹ s⁻¹ | binding result [2]: no binding | Kd [3]: 1.56 nM | koff [3]: 0.00019 s⁻¹ | kon [3]: 122000 M⁻¹ s⁻¹

B10: NRCoV2-04 VHH-Fc (Fc fusion)
chain: AVQLVDSGGGLVQPGGSLRLSCAASGSPFSNVVMAWYRQAPGKQRERVAFISGGGIADYIMSVKGRFTISRDNAKNTVYLQMNSLKPEDTAVYYCWSSYESTWGQGTQVTVSS
notes: bivalent VHH-Fc
IC50 [4]: 10.8 nM

B11: NRCoV2-15 VHH-Fc (Fc fusion)
chain: EVQLVSSGGGLVEAGGSLRLSCIASGSTSGRNTMGWFRQAPGKQREWVAIVSTSGATNYAGSVKGRFTLSRDNAKNAVYLQMNNLKPEDTAVYYCYAAYGGGGDYWGQGTQVTVSS
notes: bivalent VHH-Fc
LVNA IC50 [7]: 0.73 nM | IC50 [8]: 8.1 nM | IC99 [8]: 71.5 nM | Imax % [8]: 95%

B12: NRCoV2-15 VHH-Fc (Fc fusion)
chain: EVQLVSSGGGLVEAGGSLRLSCIASGSTSGRNTMGWFRQAPGKQREWVAIVSTSGATNYAGSVKGRFTLSRDNAKNAVYLQMNNLKPEDTAVYYCYAAYGGGGDYWGQGTQVTVSS
notes: bivalent VHH-Fc
IC50 [4]: 5.8 nM

B13: NRCoV2-02 VHH-Fc (Fc fusion)
chain: EVQLVESGGGLVQAGGSLRLSCAASGFTFSNYAMNWVRQAPGKGLEWVSGISGRGDDTRYADSVKGRFTISRDNAKNTLFLQMRSLRPEDTGVYRCTKGPDLYYFGSGYSDRGQGTQVTVSS
notes: bivalent VHH-Fc
IC50 [4]: 4.7 nM

B14: NRCoV2-MRed18 VHH (VHH)
VHH: EVQLVESGGGLVQPGGSLRLSCAASTTVFGRNAMGWYRQAPGKERELVATVSDGGTPNYADSVKGRFTISRDNAKNTIYLQMNSLEPEDTAVYYCNYYNYYYGRNFWGQGTQVTVSS
Kd [1]: 7.56 nM | koff [1]: 0.00153 s⁻¹ | kon [1]: 202000 M⁻¹ s⁻¹ | binding result [2]: no binding | Kd [3]: 6.8 nM | koff [3]: 0.00103 s⁻¹ | kon [3]: 152000 M⁻¹ s⁻¹

B15: NRCoV2-SR02 VHH-Fc (Fc fusion)
chain: EVQLVDSGGGLVQAGGSLRLSCTASEFTLNYYSIGWFRQSPGKEREGVSCIRYSGGGIDYADSVKGRFTISRDNAKNTVYLTMNSLKPEDTAVYYCAADRLYSRACPTAGGRNYWGQGTQVTVSS
notes: bivalent VHH-Fc
IC50 [4]: 1.7 nM

B16: NRCoV2-1d VHH-Fc (Fc fusion)
chain: EVQLVESGGGSVQPGGSLRLSCAASGSTLDYYAIGWFRQAPGKEREWVSSVSSSDGNTLYADSVKGRFTISRDNAKNTVYLQMNSLKAEDTAVYVCAADYSMRPFAVGRWHRDYEYWGQGTQVTVSS
notes: bivalent VHH-Fc
IC50 [4]: 4.7 nM

B17: NRCoV2-MRed19 VHH (VHH)
VHH: EVQLVESGGGLVQPGGSLRLSCAASTIIFKGQTMGWFRQAPGNERELVATMTTSGSANYADSVKGRFTISRDNEKTVTLQMNSLKPEDTALYYCYMHSVYYGIDYWGKGTQVTVSS
Kd [1]: 5.01 nM | koff [1]: 0.000799 s⁻¹ | kon [1]: 159000 M⁻¹ s⁻¹ | binding result [2]: no binding | Kd [3]: 8.2 nM | koff [3]: 0.00084 s⁻¹ | kon [3]: 102000 M⁻¹ s⁻¹

B18: NRCoV2-MRed05 VHH-Fc (Fc fusion)
chain: EVQLVESGGGLVQPGGSLRLSCAASGFTLDYYAIGWFRQAPGKEREGVSCISSSDGSTLYADSVKGRFTISRDNAKNTVYLQMNSLKPEDTAVYYCATGPQAYYSGSYYFQCPQAGMDYWGKGTQVTVSS
notes: bivalent VHH-Fc
LVNA IC50 [7]: 0.17 nM | IC50 [8]: 6.1 nM | IC99 [8]: 36.3 nM | Imax % [8]: 95%

B19: NRCoV2-MRed05 VHH-Fc (Fc fusion)
chain: EVQLVESGGGLVQPGGSLRLSCAASGFTLDYYAIGWFRQAPGKEREGVSCISSSDGSTLYADSVKGRFTISRDNAKNTVYLQMNSLKPEDTAVYYCATGPQAYYSGSYYFQCPQAGMDYWGKGTQVTVSS
notes: bivalent VHH-Fc
IC50 [4]: 4.3 nM

B20: NRCoV2-MRed22 VHH (VHH)
VHH: EVQLVESGGGLVQPGGSLRLSCAASGSVFASNAMGWYRQAPGKQRELVATISSRGSTNYADSVKGRFTISRDNAKNTVYLQMNSLGPEDTAVYYCNAREFTGFDYWGQGTQVTVSS
Kd [1]: 0.506 nM | koff [1]: 0.000176 s⁻¹ | kon [1]: 347000 M⁻¹ s⁻¹ | binding result [2]: no binding | Kd [3]: 1.05 nM | koff [3]: 0.000284 s⁻¹ | kon [3]: 270000 M⁻¹ s⁻¹

B21: NRCoV2-10 VHH-Fc (Fc fusion)
chain: QLQLQESGGGLVQPGGSLTLSCAASGNTFSRSNMHWYRQAPGAQREWVAAISSRGISTYAYSAKGRFTISRDNAKNTVSLQMNSLKPEDTAVYYCYAADDLGDYWGQGTQVTVSS
notes: bivalent VHH-Fc
IC50 [4]: 8.8 nM

B22: NRCoV2-MRed20 VHH (VHH)
VHH: EVQLVESGGGSVQAGGSLRLSCAASGLSFSSYDMGWFRQAPGKEREFVAAIRESGSGTYYADSVKGRFTISRDNAKNTVYLQVSSLKPEDTAVYTCAAKPPFYGSGTYSTPRAYLYWGQGTQVTVSS
Kd [1]: 0.0918 nM | koff [1]: 1.46e-05 s⁻¹ | kon [1]: 160000 M⁻¹ s⁻¹ | binding result [2]: no binding | Kd [3]: 0.299 nM | koff [3]: 3.38e-05 s⁻¹ | kon [3]: 113000 M⁻¹ s⁻¹

B23: NRCoV2-SR13 VHH-Fc (Fc fusion)
chain: EVQLVESGGGLVTTGGSLRLSCATSGSRFGSKHMAWYRQAPGKQRDLVAAISSGGSTHYGSSVKGRFTISRDNAKSTVYLQMNSLNPEDTAVFYCNMGGWDYRSNTYIPGSRSDYWGQGTQVTVSS
notes: bivalent VHH-Fc
LVNA IC50 [7]: ~100 nM | IC50 [8]: 23.8 nM | IC99 [8]: 1970 nM | Imax % [8]: 82%
